Read-outs that look alike come from different tables or passages of the source. Blank lines part the entries; values can stand above or below the molecule they belong to.
Key:
Human TGFβ1 (human) [1] = biological target: Human TGFβ1 (human) (UniProt P01137); assay: SPR (Biacore), apparent KD, 24 RU TGFβ1 immobilized on the chip
Human TGFβ1 (human) [2] = biological target: Human TGFβ1 (human) (UniProt P01137); assay: SPR (Biacore), apparent KD, 544 RU TGFβ1 immobilized on the chip
Human TGFβ1 (human) [3] = biological target: Human TGFβ1 (human) (UniProt P01137); assay: SPR (Biacore), apparent KD, 105 RU TGFβ1 immobilized on the chip
Human TGFβ1 [4] = biological target: T1, Human TGFβ1 (human, UniProt P01137 279-390)
T1 sequence (P01137 279-390 limits assumed): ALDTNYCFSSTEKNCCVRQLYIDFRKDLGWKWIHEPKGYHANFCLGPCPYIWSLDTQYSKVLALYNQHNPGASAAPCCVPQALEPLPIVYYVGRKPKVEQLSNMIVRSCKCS

Human TGFβ1 [5] = biological target: T1, Human TGFβ1; assay: SPR
Human TGFβ1 [6] = biological target: T1, Human TGFβ1; assay: SPR (Biacore), apparent KD, 24 RU TGFβ1 immobilized on the chip
Human TGFβ1 [7] = biological target: T1, Human TGFβ1; assay: SPR (Biacore), apparent KD, 544 RU TGFβ1 immobilized on the chip
Human TGFβ1 [8] = biological target: T1, Human TGFβ1; assay: SPR (Biacore), apparent KD, 105 RU TGFβ1 immobilized on the chip
Human TGFβ1 [9] = biological target: T1, Human TGFβ1; assay: cell-based or functional assay

Chain of Human TGFβ1 (human) (P01137 279-390 limits assumed): as above

Molecule: scFv CAT191 diabody (scFv diabody 5aa)
Kd (Human TGFβ1 (human) [1]): 4.1 nM | Kd (Human TGFβ1 (human) [2]): 4.8 nM | Kd (Human TGFβ1 (human) [3]): 3.9 nM

B2: CAT191(scFv) (scFv)
scFv: EVQLVESGGGVVQPGRSLRLSCAASGFTFSSYGMHWVRQAPGKELEWVAVISYDGSIKYYADSVKGRFTISRDNSKNTLYLQMNSLRAEDTAVYYCARTGEYSGYDTDPQYSWGQGTTVTVSSSGGGSGGGGSGGGGSEIVLTQSPSSLSASVGDRVTITCRSSQGIGDDLGWYQQKPGKAPILLIYGTSTLQSGVPSRFSGSGSGTDFTLTINSLQPEDFATYYCLQDSNYPLTFGGGTRLEIK
notes: Parental scFv; also called scFv(CAT191)
Kd (Human TGFβ1 [6]): 1.7 nM | Kd (Human TGFβ1 [7]): 1.3 nM | Kd (Human TGFβ1 [8]): 1.6 nM | IC50 (read off the curve), TGFβ1-stimulated IL-11 production (A549 bioassay) (Human TGFβ1 [9]): ~0.4 nM

The next lines start with the values.

IC50 (read off the curve), TGFβ1-stimulated IL-11 production (A549 bioassay) (Human TGFβ1 [4]): 0.01 nM
Molecule: GC1008 (antibody)

binding result (Human TGFβ1 [5]): binds
B1: Leucine zipper peptide-derived dimer (other)
scFv: EVQLVESGGGVVQPGRSLRLSCAASGFTFSSYGMHWVRQAPGKELEWVAVISYDGSIKYYADSVKGRFTISRDNSKNTLYLQMNSLRAEDTAVYYCARTGEYSGYDTDPQYSWGQGTTVTVSSSGGGSGGGGSGGGGSEIVLTQSPSSLSASVGDRVTITCRSSQGIGDDLGWYQQKPGKAPILLIYGTSTLQSGVPSRFSGSGSGTDFTLTINSLQPEDFATYYCLQDSNYPLTFGGGTRLEIKRAAAHHHHHHGAAEQKLISEEDLNGAAPKPSTPPGSSGELEELLKHLKELLKGPRKGELEELLKHLKELLKGGAPGGHHHHHH
notes: CAT191 scFv fused to tags and a leucine zipper peptide; Expressed in E. coli and only partially purified when tested
